Measurements taken from patent publication US20260217860A1 (BIOCYTOGEN PHARMACEUTICALS BEIJING, published 2026).

B1: E-9A6-M-11E8 (bispecific antibody)
heavy 1: not shown
heavy 2: QVQLVQSGGGVVQPGRSLRLSCAASGFTFSSYAMHWVRQAPGKGLEWVAVISDDGINKYYADSVKGRFTISRDNSKNTLYLQMNSLRAEDSAVYYCARALPTIFGVVMYFYYGLDVWGQGTTATVSSASTKGPSVFPLAPSSKSTSGGTAALGCLVKDYFPEPVTVSWNSGALTSGVHTFPAVLQSSGLYSLSSVVTVPSSSLGTQTYICNVNHKPSNTKVDKKVEPKSCDKTHTCPPCPAPELLGGPSVFLFPPKPKDTLMISRTPEVTCVVVDVSHEDPEVKFNWYVDGVEVHNAKTKPREEQYNSTYRVVSVLTVLHQDWLNGKEYKCKVSNKALPAPIEKTISKAKGQPREPQVCTLPPSREEMTKNQVSLSCAVKGFYPSDIAVEWESNGQPENNYKTTPPVLDSDGSFFLVSKLTVDKSRWQQGNVFSCSVMHEALHNHYTQKSLSLSPGK
light: not shown
notes: Knobs-into-holes bispecific with a common light chain; also called anti-EGFR/MUC1 bispecific antibody
B2: E-6C4-M-11E8 (bispecific antibody)
heavy 1: not shown
heavy 2: B1 heavy 2
light: not shown
notes: as for B1
B3: E-9D2-M-11E8 (bispecific antibody)
heavy 1: not shown
heavy 2: B1 heavy 2
light: not shown
notes: as for B1
B4: E-9H2-M-11E8 (bispecific antibody)
heavy 1: not shown
heavy 2: B1 heavy 2
light: not shown
notes: Knobs-into-holes bispecific with a common light chain; also called anti-EGFR/MUC1 bispecific antibody; E-9H2-M-llE8
B5: E-9F3-M-11E8 (bispecific antibody)
heavy 1: not shown
heavy 2: B1 heavy 2
light: not shown
notes: as for B1

Target: T1, His-tagged human MUC1 protein hMUC1(24-1158)-His (human, UniProt P15941 24-1158)
T1 construct: not shown: His tag
Assay: SPR, Biacore 8K, 1:1 fit;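 note: His-tagged targets captured on the chip at roughly 100 RU, antibody analytes flowed at 1 µg/mL in HBS-EP+ pH 7.4, 50 s association, 400 s dissociation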

Row | Binder | Kd [nM] | koff [s⁻¹] | kon [M⁻¹ s⁻¹]
1 | B1 | 17.3 | 0.00137 | 79100
2 | B2 | 6.21 | 0.000575 | 92700
3 | B3 | 5.97 | 0.000554 | 92700
4 | B4 | 25.4 | 0.0101 | 400000
5 | B5 | 5.24 | 0.000543 | 104000
